Measurements reported in IntAct's records for PubMed 24553140.

B1: Autophagy-related protein 16-1 (Mus musculus), Q8C0J2 (parent)
chain: MSSGLRAADFPRWKRHIAEELRRRDRLQRQAFEEIILQYTKLLEKSDLHSVLTQKLQAEKHDMPNRHEISPGHDGAWNDSQLQEMAQLRIKHQEELTELHKKRGELAQLVIDLNNQMQQKDKEIQMNEAKISEYLQTISDLETNCLDLRTKLQDLEVANQTLKDEYDALQITFTALEEKLRKTTEENQELVTRWMAEKAQEANRLNAENEKDSRRRQARLQKELAEAAKEPLPVEQDDDIEVIVDETSDHTEETSPVRAVSRAATKRLSQPAGGLLDSITNIFGRRSVSSIPVPQDIMDTHPASGKDVRVPTTASYVFDAHDGEVNAVQFSPGSRLLATGGMDRRVKLWEAFGDKCEFKGSLSGSNAGITSIEFDSAGAYLLAASNDFASRIWTVDDYRLRHTLTGHSGKVLSAKFLLDNARIVSGSHDRTLKLWDLRSKVCIKTVFAGSSCNDIVCTEQCVMSGHFDKKIRFWDIRSESVVREMELLGKITALDLNPERTELLSCSRDDLLKVIDLRTNAVKQTFSAPGFKCGSDWTRVVFSPDGSYVAAGSAEGSLYVWSVLTGKVEKVLSKQHSSSINAVAWAPSGLHVVSVDKGSRAVLWAQP

Variants of: B1
Conditions: with mlp3a_mouse Map1lc3a

Variant | effect of a mutation on the interaction
T300A | decreasing interaction
